Test results published in patent US20200024330A1.

What was measured:
Test in all cases: cell-based or functional assay
[1] = molecular target: HIV-1 Env of isolate MGRM-Chronic-B-011 (HIV-1)
[2] = molecular target: HIV-1 Env of isolate MGRM-AG-006 (HIV-1)
[3] = molecular target: aMLV envelope (negative control pseudovirus)
[4] = molecular target: HIV-1 Env of isolate MGRM-AE-006 (HIV-1)
[5] = molecular target: HIV-1 Env of isolate MGRM-Chronic-B-020 (HIV-1)
[6] = molecular target: HIV-1 Env of isolate MGRM-AG-002 (HIV-1)
[7] = molecular target: HIV-1 Env of isolate MGRM-G-006 (HIV-1)
[8] = molecular target: HIV-1 Env of isolate MGRM-G-001 (HIV-1)
[9] = molecular target: HIV-1 Env of isolate MGRM-Chronic-B-017 (HIV-1)
[10] = molecular target: HIV-1 Env of isolate MGRM-AG-005 (HIV-1)
[11] = molecular target: HIV-1 92UG024 envelope glycoprotein (Env) on pseudovirus (HIV-1)
[12] = molecular target: HIV-1 Env of isolate MGRM-G-004 (HIV-1)
[13] = molecular target: HIV-1 MGRM-C-009 Env (HIV-1)
[14] = molecular target: HIV-1 Env of isolate MGRM-AG-003 (HIV-1)
[15] = molecular target: HIV-1 Env of isolate MGRM-G-009 (HIV-1)
[16] = molecular target: HIV-1 Env of isolate JRFL (HIV-1)
[17] = molecular target: HIV-1 Env of isolate MGRM-AE-005 (HIV-1)
[18] = molecular target: HIV-1 Env of isolate MGRM-AG-001 (HIV-1)
[19] = molecular target: HIV-1 Env of isolate MGRM-AG-013 (HIV-1)
[20] = molecular target: HIV-1 NL43 envelope glycoprotein (Env) on pseudovirus (HIV-1)
[21] = molecular target: HIV-1 Env of isolate MGRM-AE-008 (HIV-1)
[22] = molecular target: HIV-1 Env of isolate MGRM-AG-008 (HIV-1)
[23] = molecular target: HIV-1 92BR020 envelope glycoprotein (Env) on pseudovirus (HIV-1)
[24] = molecular target: HIV-1 Env of isolate MGRM-Chronic-B-023 (HIV-1)
[25] = molecular target: HIV-1 Env of isolate MGRM-AG-011 (HIV-1)
[26] = molecular target: HIV-1 Env of isolate MGRM-Chronic-B-010 (HIV-1)
[27] = molecular target: HIV-1 Env of isolate MGRM-AE-004 (HIV-1)
[28] = molecular target: HIV-1 Env of isolate MGRM-AG-012 (HIV-1)
[29] = molecular target: HIV-1 Env of isolate MGRM-AG-009 (HIV-1)
[30] = molecular target: HIV-1 92RW020 envelope glycoprotein (Env) on pseudovirus (HIV-1)
[31] = molecular target: HIV-1 Env of isolate MGRM-AE-007 (HIV-1)
[32] = molecular target: HIV-1 Env of isolate MGRM-Chronic-B-024 (HIV-1)
[33] = molecular target: HIV-1 Env of isolate MGRM-Chronic-B-012 (HIV-1)
[34] = molecular target: HIV-1 Env of isolate MGRM-Chronic-B-018 (HIV-1)
[35] = molecular target: HIV-1 92TH021 envelope glycoprotein (Env) on pseudovirus (HIV-1)

1443_C16 (PG16) (TCN-116) (antibody), sequence (VH): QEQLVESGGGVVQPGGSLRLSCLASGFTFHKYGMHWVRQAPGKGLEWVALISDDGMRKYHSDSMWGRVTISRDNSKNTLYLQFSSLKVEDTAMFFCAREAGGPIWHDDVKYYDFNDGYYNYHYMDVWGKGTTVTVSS
1443_C16 (PG16) (TCN-116) (antibody), sequence (VL): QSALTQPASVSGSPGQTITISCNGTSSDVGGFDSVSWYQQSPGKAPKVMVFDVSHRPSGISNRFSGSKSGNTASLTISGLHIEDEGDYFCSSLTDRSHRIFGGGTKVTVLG

Row | Substance | IC50 (µg/ml), pseudovirus neutralization [1] [µg/mL] | IC50 (µg/ml), pseudovirus neutralization [2] [µg/mL] | IC50 (µg/ml), pseudovirus neutralization [3] [µg/mL] | IC50 (µg/ml), pseudovirus neutralization [4] [µg/mL] | IC50 (µg/ml), pseudovirus neutralization [5] [µg/mL] | IC50 (µg/ml), pseudovirus neutralization [6] [µg/mL] | IC50 (µg/ml), pseudovirus neutralization [7] [µg/mL] | IC50 (µg/ml), pseudovirus neutralization [8] [µg/mL] | IC50 (µg/ml), pseudovirus neutralization [9] [µg/mL] | IC50 (µg/ml), pseudovirus neutralization [10] [µg/mL] | IC90 (pseudovirus neutralization) [11] [µg/mL] | IC50 (µg/ml), pseudovirus neutralization [12] [µg/mL] | IC50 [13] [µg/mL] | IC50 (µg/ml), pseudovirus neutralization [14] [µg/mL] | IC50 (µg/ml), pseudovirus neutralization [15] [µg/mL] | IC50 (µg/ml), pseudovirus neutralization [16] [µg/mL] | IC50 (µg/ml), pseudovirus neutralization [17] [µg/mL] | IC50 (µg/ml), pseudovirus neutralization [18] [µg/mL] | IC50 (µg/ml), pseudovirus neutralization [19] [µg/mL] | IC90 (pseudovirus neutralization) [20] [µg/mL] | further results
1 | 2G12 (antibody) | > 50 | 3.92 | > 50 | > 50 | 0.2 | 0.54 | > 50 | > 50 | > 50 | > 50 | 7.57 | > 50 | > 50 | > 50 | > 50 | 1.45 | > 50 | 0.69 | 0.95 | 15.8 | IC50 (µg/ml), pseudovirus neutralization [21]: > 50 µg/mL; IC50 (µg/ml), pseudovirus neutralization [22]: > 50 µg/mL; IC90 (pseudovirus neutralization) [23]: 24.1 µg/mL; IC50 (µg/ml), pseudovirus neutralization [24]: 0.16 µg/mL; IC50 (µg/ml), pseudovirus neutralization [25]: > 50 µg/mL; IC50 (µg/ml), pseudovirus neutralization [26]: 1.5 µg/mL; IC50 (µg/ml), pseudovirus neutralization [27]: > 50 µg/mL; IC50 (µg/ml), pseudovirus neutralization [28]: 1.94 µg/mL; IC50 (µg/ml), pseudovirus neutralization [29]: > 50 µg/mL; IC90 (pseudovirus neutralization) [30]: 6.23 µg/mL; IC50 (µg/ml), pseudovirus neutralization [31]: > 50 µg/mL; IC50 (µg/ml), pseudovirus neutralization [32]: > 50 µg/mL; IC50 (µg/ml), pseudovirus neutralization [33]: 0.22 µg/mL; IC50 (µg/ml), pseudovirus neutralization [34]: > 50 µg/mL; IC90 (pseudovirus neutralization) [35]: > 50 µg/mL
2 | 4E10 (antibody) | 1.07 | 1.76 | > 50 | 0.23 | 2.45 | 0.8 | 1.23 | 2.04 | 2.77 | 2.13 | 23.7 | 1.47 | 0.56 | 0.64 | 1.34 | 18.9 | 0.47 | 1.12 | 2.61 | 29.6 | IC50 (µg/ml), pseudovirus neutralization [21]: 0.94 µg/mL; IC50 (µg/ml), pseudovirus neutralization [22]: 1.48 µg/mL; IC90 (pseudovirus neutralization) [23]: > 50 µg/mL; IC50 (µg/ml), pseudovirus neutralization [24]: 27.9 µg/mL; IC50 (µg/ml), pseudovirus neutralization [25]: 1.36 µg/mL; IC50 (µg/ml), pseudovirus neutralization [26]: 1.69 µg/mL; IC50 (µg/ml), pseudovirus neutralization [27]: 1.27 µg/mL; IC50 (µg/ml), pseudovirus neutralization [28]: 0.86 µg/mL; IC50 (µg/ml), pseudovirus neutralization [29]: 31.4 µg/mL; IC90 (pseudovirus neutralization) [30]: 36.1 µg/mL; IC50 (µg/ml), pseudovirus neutralization [31]: 0.45 µg/mL; IC50 (µg/ml), pseudovirus neutralization [32]: 9.19 µg/mL; IC50 (µg/ml), pseudovirus neutralization [33]: 48 µg/mL; IC50 (µg/ml), pseudovirus neutralization [34]: 23.2 µg/mL; IC90 (pseudovirus neutralization) [35]: 23.5 µg/mL
3 | 1443_C16 (PG16) (TCN-116) (antibody) | > 50 | > 50 | > 50 | 0.03 | > 50 | 0.03 | 2.42 | 0.15 | 0.02 | > 50 | > 50 | > 50 | > 50 | > 50 | > 50 | > 50 | 0.02 | 0.03 | 0.31 | > 50 | IC50 (µg/ml), pseudovirus neutralization [21]: 3.25 µg/mL; IC50 (µg/ml), pseudovirus neutralization [22]: 0.002 µg/mL; IC90 (pseudovirus neutralization) [23]: > 50 µg/mL; IC50 (µg/ml), pseudovirus neutralization [24]: 0.13 µg/mL; IC50 (µg/ml), pseudovirus neutralization [25]: 0.002 µg/mL; IC50 (µg/ml), pseudovirus neutralization [26]: 0.01 µg/mL; IC50 (µg/ml), pseudovirus neutralization [27]: 0.002 µg/mL; IC50 (µg/ml), pseudovirus neutralization [28]: 25.1 µg/mL; IC50 (µg/ml), pseudovirus neutralization [29]: > 50 µg/mL; IC90 (pseudovirus neutralization) [30]: > 50 µg/mL; IC50 (µg/ml), pseudovirus neutralization [31]: 0.04 µg/mL; IC50 (µg/ml), pseudovirus neutralization [32]: 0.01 µg/mL; IC50 (µg/ml), pseudovirus neutralization [33]: 3.74 µg/mL; IC50 (µg/ml), pseudovirus neutralization [34]: 0.7 µg/mL; IC90 (pseudovirus neutralization) [35]: 23.4 µg/mL
4 | b12 (antibody) | 2.11 | > 50 | > 50 | > 50 | 6.16 | 0.89 | > 50 | > 50 | 2.59 | > 50 | > 50 | > 50 | > 50 | > 50 | > 50 | 0.02 | 0.63 | 11.9 | > 50 | 0.28 | IC50 (µg/ml), pseudovirus neutralization [21]: > 50 µg/mL; IC50 (µg/ml), pseudovirus neutralization [22]: > 50 µg/mL; IC90 (pseudovirus neutralization) [23]: > 50 µg/mL; IC50 (µg/ml), pseudovirus neutralization [24]: > 50 µg/mL; IC50 (µg/ml), pseudovirus neutralization [25]: > 50 µg/mL; IC50 (µg/ml), pseudovirus neutralization [26]: > 50 µg/mL; IC50 (µg/ml), pseudovirus neutralization [27]: > 50 µg/mL; IC50 (µg/ml), pseudovirus neutralization [28]: 10.4 µg/mL; IC50 (µg/ml), pseudovirus neutralization [29]: > 50 µg/mL; IC90 (pseudovirus neutralization) [30]: > 50 µg/mL; IC50 (µg/ml), pseudovirus neutralization [31]: > 50 µg/mL; IC50 (µg/ml), pseudovirus neutralization [32]: > 50 µg/mL; IC50 (µg/ml), pseudovirus neutralization [33]: > 50 µg/mL; IC50 (µg/ml), pseudovirus neutralization [34]: 0.66 µg/mL; IC90 (pseudovirus neutralization) [35]: > 50 µg/mL
